Patent publication US20230212239A1, “INHIBITORS OF CBL AUTOINHIBITION AND RELATED METHODS” (THE HOSPITAL FOR SICK CHILDREN, priority 2020, published 2023)
“Also recorded” adds a separate entry of the source. Each block holds one molecule with its values, some of them ahead of it.

Key:
CBL TKBD-LHR-RING = biological target: T1, CBL TKBD-LHR-RING (Homo sapiens, UniProt P22681); test: Chemiluminescence based E3LITE assay of total polyubiquitylated products; type: biochemical; details: added to CBL, compared to CBL alone
T1 construct: GST (N, cleaved yes); made in house; host or cells: E. coli BL-21
T1 sequence (P22681 2-436): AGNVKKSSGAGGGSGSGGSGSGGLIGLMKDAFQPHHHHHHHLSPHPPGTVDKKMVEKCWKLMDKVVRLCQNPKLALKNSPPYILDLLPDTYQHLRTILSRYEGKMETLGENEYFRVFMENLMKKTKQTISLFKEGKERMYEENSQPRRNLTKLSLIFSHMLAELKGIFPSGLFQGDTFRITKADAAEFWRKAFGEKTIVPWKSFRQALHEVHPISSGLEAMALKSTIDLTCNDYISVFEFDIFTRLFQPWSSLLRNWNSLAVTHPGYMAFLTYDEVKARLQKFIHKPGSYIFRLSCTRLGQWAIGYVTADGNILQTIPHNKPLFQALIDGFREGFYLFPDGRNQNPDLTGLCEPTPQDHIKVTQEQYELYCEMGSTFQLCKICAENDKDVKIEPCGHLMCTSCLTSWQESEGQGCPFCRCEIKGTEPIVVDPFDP
From the text: (§1) Given that binding of SLAP2 and the LHR-RING would be mutually exclusive (FIG. 8C), we reasoned that binding of SLAP2 to CBL could displace the LHR-RING, thereby promoting the catalytically competent conformation. To test this hypothesis, an in vitro ubiquitination assay in which E3 ligase activity is detected by a smear at high molecular weight on an anti-ubiquitin (Ub) immunoblot was employed. […] To further compare and quantify CBL ubiquitin ligase activity, a chemiluminescence based assay which measures the total amount of polyubiquitylated products formed in an in vitro reaction was used. In this assay, production of polyubiquitylated proteins increased upon addition of SLAP2 or pSLAP2 to CBL, compared to CBL alone (FIG. 9C and FIG. 10A).
Ubiquitination reactions were set up as above (25 µL total volume) in triplicate and diluted with reaction buffer after completion (1:40 for pCBL, 1:15 for all other reactions). […] Wells were washed four times with PBS-T and 25 µL of prepared Immobilon Western Chemiluminescent HRP Substrate (Millipore #P90719) added to each well immediately prior to the plate being read on a Synergy Neo2 Plate Reader (BioTek Instruments). […] Standard deviation of the reaction averages was calculated and used as a measure of error. Each reaction set was analyzed at least twice with fresh protein purifications.

[1] = biological target: T2, CBL TKBD-LHR-RING (2-436), unphosphorylated (Homo sapiens, UniProt P22681); test: In vitro ubiquitination assay, anti-ubiquitin immunoblot; type: biochemical; details: added to unphosphorylated CBL; 20 pmol CBL, 60 pmol SLAP2/pSLAP2
T2 construct: GST (N, cleaved yes); made in house; host or cells: E. coli BL-21
T2 sequence (P22681 2-436): T1 sequence (P22681 2-436)
From the text: as §1
In vitro ubiquitination reactions were prepared with 20 pmol of CBL or pCBL and 60 pmol of hSLAP2 or phosphorylated hSLAP2 (pSLAP2) for both WT and mutants. Reagents were thawed and reactions prepared on ice. CBL and SLAP2 were mixed in PBS (with 5 mM βME, 5 mM caproic acid, 0.5 mM PMSF, and 0.5 mM Na3VO4) at rt for 5-10 min before addition of master mix (42 pmol E1 (UBE1, Boston Biochem or Ubiquitin-Proteasome Biotechnologies), 0.1 µmol E2 (UbcH5b/UBE2D2, Boston Biochem #E2-622), […], and 11.6 µmol ubiquitin (Boston Biochem #U-100H) in reaction buffer (0.2 M Tris pH 7.5, 10 mM MgCl2, 2 mM DTT). Reactions were incubated at 30° C. shaking at 500-700 rpm for 60-110 minutes and terminated by addition of SDS 2X loading buffer and boiling for 5-10 minutes. Equal volumes of each reaction were loaded on 12.5% SDS-PAGE gel, transferred to PVDF membrane, and immunoblotted for ubiquitin as per standard protocols (anti-ubiquitin antibody P4G7, BioLegend #838701, 1:1000; anti-mouse IgG HRP-linked antibody, Cell Signaling Technology #7076, 1:10000; Western Lightning Plus ECL, Perkin Elmer).

- CBL ubiquitination activity (anti-Ub immunoblot) [1]: stimulated CBL ubiquitination activity
B1: Trx-His(6)-Δlinker-hSLAP2 (human SLAP2 29-261) (other)
chain: EAERSKATAVALGSFPAGGPAELSLRLGEPLTIVSEDGDWWTVLSEVSGREYNIPSVHVAKVSHGWLYEGLSREKAEELLLLPGNPGGAFLIRESQTRRGSYSLSVRLSRPASWDRIRHYRIHCLDNGWLYISPRLTFPSLQALVDHYSELADDICCLLKEPCVLQRAGPLPGKDIPLPVTVQRTPLNWKELDSSLLFSEAATGEESLLSEGLRESLSFYISLNDEAVSLDDA
notes: also called Trx-His-SLAP2; SLAP2 WT; not shown: N-terminal thioredoxin (Trx)-His(6)-TEV-site tag and linker of the modified pET32a (Δlinker version)
- production of polyubiquitylated proteins / CBL ligase activity (CBL TKBD-LHR-RING): increased

B2: pSLAP2: tyrosine phosphorylated SLAP2 expressed in TKB1 cells (protein, UniProt Q9H6Q3 2-261, looked up)
Src-like-adapter 2: GSLPSRRKSLPSPSLSSSVQGQGPVTMEAERSKATAVALGSFPAGGPAELSLRLGEPLTIVSEDGDWWTVLSEVSGREYNIPSVHVAKVSHGWLYEGLSREKAEELLLLPGNPGGAFLIRESQTRRGSYSLSVRLSRPASWDRIRHYRIHCLDNGWLYISPRLTFPSLQALVDHYSELADDICCLLKEPCVLQRAGPLPGKDIPLPVTVQRTPLNWKELDSSLLFSEAATGEESLLSEGLRESLSFYISLNDEAVSLDDA
modifications: tyrosine phosphorylated
notes: tyrosine phosphorylated SLAP2 expressed in TKB1 cells
- production of polyubiquitylated proteins / CBL ligase activity (CBL TKBD-LHR-RING): increased; also recorded: stimulated CBL ligase activity to a greater extent than SLAP2
- CBL ubiquitination activity (anti-Ub immunoblot) [1]: stimulated CBL ubiquitination activity; also recorded: promote CBL ubiquitination activity to a greater extent than the addition of SLAP2
